# Reference: patent publication US20240228599A1
# Target: cynomolgus monkey Factor B (cynomolgus monkey)
# Assay: ELISA; cynomolgus Factor B coated at 5 µg/mL, mAb in 3-fold dilutions from 10 µg/mL; EC50 by Prism according to the text, headed 'Binding Affinity (M)' on the sheet
binder,measurement,value
"anti-factor Bb monoclonal antibody M12 (antibody, V domains shown) VH: EVQLQQSGPELVKPGASVKMSCKASGYSFTDYLMNWVKQSHGKSLEWIGRINPYNGDAFYNQRFKGKATLTVDKSSSTAHMELRSLTSEDSALYYCARLENDYGFTYWGQGTLVTVSA VL: DIVMTQAAFSNPVTLGTSASISCSSSKSLLHSNGITYLYWYLQRPGQSPQLLIYRMSNLASGVPDRFSGSGSGTDFTLRISRVEAEDVGVYYCAQMLERPWTFGGGTKLEIK",EC50,5.56 nM
